Laboratory results reported in paper PMC5001606.
Residue numbers refer to the chain shown, from its start. In names and notes the source's numbering stands.

T1: HiNmlR wild-type (Haemophilus influenzae Rd KW20, UniProt P44558 1-135)
T1 sequence: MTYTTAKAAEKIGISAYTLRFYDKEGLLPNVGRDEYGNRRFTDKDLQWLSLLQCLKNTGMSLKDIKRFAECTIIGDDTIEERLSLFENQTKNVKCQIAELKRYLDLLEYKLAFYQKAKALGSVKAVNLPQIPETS

T2: HiNmlR C54A (Haemophilus influenzae Rd KW20, UniProt P44558 1-135, C54A)
T2 sequence: T1 sequence with C54A

T3: HiNmlR C54A/C71A/C95A (Haemophilus influenzae Rd KW20, UniProt P44558 1-135, C54A;C71A;C95A)
T3 sequence: T1 sequence with C54A, C71A, C95A

T4: HiNmlR C71A/C95A (Haemophilus influenzae Rd KW20, UniProt P44558 1-135, C71A;C95A)
T4 sequence: T1 sequence with C71A, C95A

T5: HiNmlR C54A/C95A (Haemophilus influenzae Rd KW20, UniProt P44558 1-135, C54A;C95A)
T5 sequence: T1 sequence with C54A, C95A

B1: G5'C 24-bp (dsDNA)
DNA 1: CACTTTACAGTTCACTCTAAAGCA
DNA 2: TGCTTTAGAGTGAACTGTAAAGTG
B2: G5'C/C5G 24-bp (dsDNA)
DNA 1: CACTTTACAGTTCACTGTAAAGCA
DNA 2: TGCTTTACAGTGAACTGTAAAGTG
B3: C5G 24-bp (dsDNA)
DNA 1: CACTTTAGAGTTCACTGTAAAGCA
DNA 2: TGCTTTACAGTGAACTCTAAAGTG
B4: PadhC-estD/nmlR IR wt 24-bp (dsDNA)
DNA 1: CACTTTAGAGTTCACTCTAAAGCA
DNA 2: TGCTTTAGAGTGAACTCTAAAGTG

Tests used:
Experiment in all cases: MST
HiNmlR wild-type = molecular target: T1, HiNmlR wild-type
HiNmlR C54A = molecular target: T2, HiNmlR C54A
HiNmlR C54A/C71A/C95A = molecular target: T3, HiNmlR C54A/C71A/C95A
HiNmlR C71A/C95A = molecular target: T4, HiNmlR C71A/C95A
HiNmlR C54A/C95A = molecular target: T5, HiNmlR C54A/C95A

Row | Binder | Kd (HiNmlR wild-type) [nM] | Kd (HiNmlR C54A) [nM] | Kd (HiNmlR C54A/C71A/C95A) [nM] | Kd (HiNmlR C71A/C95A) [nM] | Kd (HiNmlR C54A/C95A) [nM]
1 | B1 | 245 ± 26.1 |  |  |  | 
2 | B2 | 4690 ± 311 |  |  |  | 
3 | B3 | 252 ± 17.4 |  |  |  | 
4 | B4 | 25.2 ± 2.3 | 91.1 ± 15.6 | 55.3 ± 5.3 | 33 ± 3.4 | 47.4 ± 6.7
